Data taken from paper PMC9860126, “Mechanistic insights into the nickel-dependent allosteric response of the Helicobacter pylori NikR transcription factor”.
Residue numbers refer to the chain shown, from its start.

Tests used:
Assay in all cases: fluorescence anisotropy; apo (no Ni); FA: 5 nM DNA, 20 mM Tris pH 7.6, 100 mM NaCl, 3 mM MgSO4, temperature not stated (Ni loading 1.2 eq NiSO4 per monomer at RT). EMSA: 20 mM Tris pH 7.5, 100 mM KCl, 3 mM MgCl2, 0.1% IGEPAL, 5% glycerol, 0.1 mg/ml herring sperm DNA, RT; gel with 800 uM NiSO4 at 4 C
HpNikR T92A = HpNikR T92A (Helicobacter pylori G27, UniProt A1YSQ9 1-148, T92A); details: protein: recombinant; tags: none stated; chain copies: 4; label: fluorescein on internal thymine (T14 of strand 1); blunt
HpNikR E62A = HpNikR E62A (Helicobacter pylori G27, UniProt A1YSQ9 1-148, E62A); details: protein: recombinant; tags: none stated; chain copies: 4; label: fluorescein on internal thymine (T14 of strand 1); blunt
HpNikR K31A = HpNikR K31A (Helicobacter pylori G27, UniProt A1YSQ9 1-148, K31A); details: protein: recombinant; tags: none stated; chain copies: 4; label: fluorescein on internal thymine (T14 of strand 1); blunt
HpNikR W54A = HpNikR W54A (Helicobacter pylori G27, UniProt A1YSQ9 1-148, W54A); details: protein: recombinant; tags: none stated; chain copies: 4; label: fluorescein on internal thymine (T14 of strand 1); blunt
HpNikR WT = biological target: T1, HpNikR WT (Helicobacter pylori G27 (from vector …, UniProt A1YSQ9 1-148)); details: protein: recombinant; tags: none stated (untagged purification); chain copies: 4; label: fluorescein on internal thymine (T14 of strand 1); blunt
T1 sequence: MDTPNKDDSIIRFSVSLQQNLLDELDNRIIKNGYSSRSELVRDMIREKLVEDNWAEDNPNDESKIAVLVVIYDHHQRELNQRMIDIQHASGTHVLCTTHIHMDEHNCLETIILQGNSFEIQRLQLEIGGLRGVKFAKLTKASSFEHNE

HpNikR K134A = HpNikR K134A (Helicobacter pylori G27, UniProt A1YSQ9 1-148, K134A); details: protein: recombinant; tags: none stated; chain copies: 4; label: fluorescein on internal thymine (T14 of strand 1); blunt
HpNikR Q81A = HpNikR Q81A (Helicobacter pylori G27, UniProt A1YSQ9 1-148, Q81A); details: protein: recombinant; tags: none stated; chain copies: 4; label: fluorescein on internal thymine (T14 of strand 1); blunt
HpNikR I127A = HpNikR I127A (Helicobacter pylori G27, UniProt A1YSQ9 1-148, I127A); details: protein: recombinant; tags: none stated; chain copies: 4; label: fluorescein on internal thymine (T14 of strand 1); blunt
HpNikR K48A = HpNikR K48A (Helicobacter pylori G27, UniProt A1YSQ9 1-148, K48A); details: protein: recombinant; tags: none stated; chain copies: 4; label: fluorescein on internal thymine (T14 of strand 1); blunt
HpNikR E56A = HpNikR E56A (Helicobacter pylori G27, UniProt A1YSQ9 1-148, E56A); details: protein: recombinant; tags: none stated; chain copies: 4; label: fluorescein on internal thymine (T14 of strand 1); blunt

B1: ureA promoter 32 bp (FA) (dsDNA)
DNA 1: ATATAACACTAATTCATTTTAAATAATAATTA
DNA 2: TAATTATTATTTAAAATGAATTAGTGTTATAT
Binder B1 has a Kd (HpNikR T92A) of 2200 ± 200 nM, a Kd (HpNikR E62A) of 2600 ± 200 nM and a Kd (HpNikR K31A) of 2300 ± 500 nM. The Kd (HpNikR W54A) was 6100 ± 1000 nM, the Kd (HpNikR WT) was 4900 ± 1700 nM and the Kd (HpNikR K134A) was 1700 ± 700 nM. The Kd (HpNikR Q81A) was 2000 ± 500 nM, the Kd (HpNikR I127A) was 4000 ± 1300 nM and the binding result (HpNikR K48A) was “no binding”. It also gave a Kd (HpNikR E56A) of 1800 ± 300 nM.

B2: ureA-perf promoter 32 bp (dsDNA)
DNA 1: B1 DNA 1 with A6T, C7T, C9T
DNA 2: B1 DNA 2 with G24A, G26A, T27A
B2 was tested, and the Kd (HpNikR T92A) was 2500 ± 400 nM, the Kd (HpNikR E62A) was 4200 ± 700 nM and the Kd (HpNikR K31A) was 1300 ± 200 nM. It also gave a Kd (HpNikR W54A) of 3700 ± 200 nM, a Kd (HpNikR WT) of 4100 ± 1100 nM and a Kd (HpNikR K134A) of 1000 ± 300 nM. For the same binder, the Kd (HpNikR Q81A) was 1600 ± 600 nM, the Kd (HpNikR I127A) was 4000 ± 300 nM and the binding result (HpNikR K48A) was “no binding”. The Kd (HpNikR E56A) was 1200 ± 100 nM.
